# According to PMC6882858, “Seryl tRNA synthetase cooperates with POT1 to regulate telomere length and cellular senescence” (Signal Transduction and Targeted Therapy, 2019):
# B1: recombinant POT1 with a His6 tag at its C-terminal end (natural protein, human, UniProt Q9NUX5 1-634, looked up)
# chain: MSLVPATNYIYTPLNQLKGGTIVNVYGVVKFFKPPYLSKGTDYCSVVTIVDQTNVKLTCLLFSGNYEALPIIYKNGDIVRFHRLKIQVYKKETQGITSSGFASLTFEGTLGAPIIPRTSSKYFNFTTEDHKMVEALRVWASTHMSPSWTLLKLCDVQPMQYFDLTCQLLGKAEVDGASFLLKVWDGTRTPFPSWRVLIQDLVLEGDLSHIHRLQNLTIDILVYDNHVHVARSLKVGSFLRIYSLHTKLQSMNSENQTMLSLEFHLHGGTSYGRGIRVLPESNSDVDQLKKDLESANLTANQHSDVICQSEPDDSFPSSGSVSLYEVERCQQLSATILTDHQYLERTPLCAILKQKAPQQYRIRAKLRSYKPRRLFQSVKLHCPKCHLLQEVPHEGDLDIIFQDGATKTPDVKLQNTSLYDSKIWTTKNQKGRKVAVHFVKNNGILPLSNECLLLIEGGTLSEICKLSNKFNSVIPVRSGHEDLELLDLSAPFLIQGTIHHYGCKQCSSLRSIQNLNSLVDKTSWIPSSVAEALGIVPLQYVFVMTFTLDDGTGVLEAYLMDSDKFFQIPASEVLMDDDLQKSVDMIMDMFCPPGIKIDAYPWLECFIKSYNVTNGTDNQICYQIFDTTVAEDVI
# notes: also called His6-tagged POT1; pET-20b-POT1; not shown: His6, C-terminal, kept
# B2: GST-fused full-length POT1 (natural protein, human, UniProt Q9NUX5 1-634, looked up)
# chain: MSLVPATNYIYTPLNQLKGGTIVNVYGVVKFFKPPYLSKGTDYCSVVTIVDQTNVKLTCLLFSGNYEALPIIYKNGDIVRFHRLKIQVYKKETQGITSSGFASLTFEGTLGAPIIPRTSSKYFNFTTEDHKMVEALRVWASTHMSPSWTLLKLCDVQPMQYFDLTCQLLGKAEVDGASFLLKVWDGTRTPFPSWRVLIQDLVLEGDLSHIHRLQNLTIDILVYDNHVHVARSLKVGSFLRIYSLHTKLQSMNSENQTMLSLEFHLHGGTSYGRGIRVLPESNSDVDQLKKDLESANLTANQHSDVICQSEPDDSFPSSGSVSLYEVERCQQLSATILTDHQYLERTPLCAILKQKAPQQYRIRAKLRSYKPRRLFQSVKLHCPKCHLLQEVPHEGDLDIIFQDGATKTPDVKLQNTSLYDSKIWTTKNQKGRKVAVHFVKNNGILPLSNECLLLIEGGTLSEICKLSNKFNSVIPVRSGHEDLELLDLSAPFLIQGTIHHYGCKQCSSLRSIQNLNSLVDKTSWIPSSVAEALGIVPLQYVFVMTFTLDDGTGVLEAYLMDSDKFFQIPASEVLMDDDLQKSVDMIMDMFCPPGIKIDAYPWLECFIKSYNVTNGTDNQICYQIFDTTVAEDVI
# notes: Held on beads in the GST pull-down; also called GST-POT1 FL; pGEX6P-1-POT1; not shown: GST, N-terminal, kept
# Experiments:
# [1] = target: T1, GST-fused full length SerRS (human, UniProt P49591 1-514); assay: pull-down; GST-fusion proteins bound to beads incubated with 0.5 uM purified recombinant His6-tagged protein in 500 ul GST pulldown buffer (150 mM NaCl, 20 mM HEPES pH 7.9, 0.5 mM EDTA, 0.1% Triton X-100, 10% glycerol, 1 mM DTT) overnight at 4 °C; washed 5 times; western blot with anti-His or anti-GST; conditions: both partners purified
# T1 construct: also called GST-SerRS FL; pGEX6P-1-SerRS
# T1 sequence (P49591 whole entry, the tested form may be a part): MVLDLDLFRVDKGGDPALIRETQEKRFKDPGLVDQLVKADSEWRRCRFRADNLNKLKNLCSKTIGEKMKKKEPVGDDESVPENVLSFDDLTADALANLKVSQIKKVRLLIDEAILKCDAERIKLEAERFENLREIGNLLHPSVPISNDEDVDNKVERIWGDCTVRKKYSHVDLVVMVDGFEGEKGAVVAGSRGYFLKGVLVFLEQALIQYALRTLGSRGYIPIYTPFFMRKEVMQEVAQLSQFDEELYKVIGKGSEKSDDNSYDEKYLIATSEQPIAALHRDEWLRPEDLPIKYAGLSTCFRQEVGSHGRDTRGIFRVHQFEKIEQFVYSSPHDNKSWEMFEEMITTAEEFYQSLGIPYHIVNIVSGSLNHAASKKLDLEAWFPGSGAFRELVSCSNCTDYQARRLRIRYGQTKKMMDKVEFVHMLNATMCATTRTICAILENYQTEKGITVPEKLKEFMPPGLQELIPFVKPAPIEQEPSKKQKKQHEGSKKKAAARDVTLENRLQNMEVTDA
# [2] = target: T2, purified His6-tagged SerRS (human, UniProt P49591 1-514); assay: as above; conditions: both partners purified
# T2 construct: also called recombinant SerRS; PET-20b-SerRS
# T2 sequence (P49591 whole entry): as the sequence (P49591 whole entry, the tested form may be a part) above
Binder,binding result [1],binding result [2]
B1,binds,
B2,,binds
